The test system of one test is Ku70 acetylation. Nature of the test: Ku70 acetylation level in cells (Ku70 IP, panAc-K antibody blot). The test is classed as cell-based, human. The following applies: HeLa cells, NAM 5 mM, TSA 1 μM, normalized to DMSO treatment.
In another test the test system is 293T cells. Briefly: Bax-mediated apoptosis in 293T cells transfected with YFP-Bax and Ku70 (apoptotic nuclei scored). The test is classed as cell-based, human. The following applies: for effect on the ability of Ku70 to suppress Bax-mediated apoptosis: 293T cells cotransfected with YFP-Bax and Ku70, apoptotic nuclei scored 24 hr posttransfection.
The next test has as its target T1, PCAF (Homo sapiens, UniProt Q92831).
T1 construct: 100 ng of recombinant HAT domains of p300, PCAF, or CBP
Nature of the test: In vitro acetylation assay of Ku70 peptides with PCAF HAT domain and 3H-acetyl-CoA. The test is classed as biochemical. More on the design: key to Relative Intensity of Acetylation: +: Band intensity was measured using NIH ImageJ software and normalized to the intensity of peptide 3.; ++: Band intensity was measured using NIH ImageJ software and normalized to the intensity of peptide 3.; +++: Band intensity was measured using NIH ImageJ software and normalized to the intensity of peptide 3.; +++++: Band intensity was measured using NIH ImageJ software and normalized to the intensity of peptide 3. The following applies: for acetylation of peptide by PCAF in vitro: HAT domain of PCAF, 3H-acetyl-CoA, autoradiography; for Relative Intensity of Acetylation: Ku70 peptides acetylated by PCAF in vitro, band intensity normalized to peptide 3. On the procedure:
FIG. 2B is a schematic representation of the synthetic peptide library spanning the entire length of Ku70. Each peptide was incubated with PCAF and 3H-acetyl-CoA and analyzed as in FIG. 2A.
(§1) FIG. 2C is a series of photographs showing acetylation peptides 16 and 29 as resolved by SDS-PAGE (PCAF reaction, left panel; CBP reaction, right panel). The acetylated domain of p53 (aa 315-325) served as a positive control for acetylation.
(§2) FIG. 2D is a photograph showing acetylation results of a series of scanning synthetic peptides of peptide 29. These scanning synthetic peptides were synthesized, with three out of the four lysines (K) substituted for arginine (R), a residue that cannot be acetylated. Peptides were incubated in acetylation reactions with PCAF or CBP and resolved by SDS-PAGE as above.
(§3) Due to the strong interaction between Ku70 and CBP and the efficient acetylation of Ku70 in vitro, we sought to define the regions of Ku70 that are targeted for acetylation. A library of 31 peptides was synthesized to cover the entire Ku70 sequence (FIG. 2B). Each of these peptides was incubated in an acetylation reaction as above, with either the HAT domain of PCAF or CBP. Again, a p53 peptide served as a positive control. […] Peptide 29 ([…]541-562), which contains four lysines (K542, K544, K553, and K556), is located within the C-terminal flexible linker region that we had previously identified as a potential target for acetylation (see FIG. 1 B).
(§4) To determine which lysines in peptide 29 were being acetylated in the reaction, a series of substitutions were made in which three out of the four lysines were replaced with arginine, a residue that cannot be acetylated. Each peptide was then incubated with either PCAF or CBP and analyzed by autoradiography as above.
(§5) Protein acetyltransferase assays were performed in 30 μl of reaction buffer containing 50 mM HEPES (pH 8.0), 10% glycerol, 1 mM DTT, 1 mM PMSF, 10 mM Na-butyrate, 1 μL (3H]-acetyl-CoA, 1 μg recombinant Ku70/80 complex or Ku70 peptide, and 100 ng of recombinant HAT domains of p300, PCAF, or CBP. Reactions were incubated at 30° C. for 1 hr and separated by SDS-PAGE (10%), stained with Coomassie blue, treated with EN^3HANCE autoradiography enhancer (NEN), dried, and exposed to film for 3-7 days. p53 peptides used as positive controls were p53315-3235 and p53377-389.

In a further test the target is T2, CBP (Homo sapiens, UniProt Q92793).
T2 construct: 100 ng of recombinant HAT domains of p300, PCAF, or CBP
Briefly: In vitro acetylation assay of Ku70 peptides with CBP HAT domain and 3H-acetyl-CoA. Type of test: biochemical. The settings on record: autoradiography.
From the text: as §1, §2, §3, §4, §5

Experimental findings from patent publication US20060084085A1, “Methods and compositions for modulating Bax-mediated apoptosis” (priority 2004, published 2006) are described below.

T2 sequence (Q92793 1323-1700 limits assumed): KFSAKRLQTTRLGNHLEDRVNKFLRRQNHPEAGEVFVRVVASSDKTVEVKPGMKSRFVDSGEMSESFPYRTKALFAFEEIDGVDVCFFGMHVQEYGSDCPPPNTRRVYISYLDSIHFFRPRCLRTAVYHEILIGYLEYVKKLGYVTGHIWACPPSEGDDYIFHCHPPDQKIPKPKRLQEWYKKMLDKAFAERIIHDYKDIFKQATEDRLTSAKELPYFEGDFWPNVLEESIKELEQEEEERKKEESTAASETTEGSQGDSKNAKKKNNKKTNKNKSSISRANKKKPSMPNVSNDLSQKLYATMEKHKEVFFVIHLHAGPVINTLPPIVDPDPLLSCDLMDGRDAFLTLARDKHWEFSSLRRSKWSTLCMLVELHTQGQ
T1 sequence (Q92831 503-651 limits assumed): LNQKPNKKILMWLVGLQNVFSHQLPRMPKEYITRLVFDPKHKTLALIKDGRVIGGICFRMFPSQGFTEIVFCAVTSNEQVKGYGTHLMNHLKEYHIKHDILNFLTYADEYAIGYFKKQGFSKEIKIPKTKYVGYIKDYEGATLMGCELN
Method for 293T cells: 293T cells were cotransfected with YFP (Yellow Fluorescent Protein)-Bax and pcDNA-Ku70 in the presence or absence of TSA/NAM. The percentage of cells with apoptotic nuclei were scored 24 hr posttransfection.
(A) 293T cells were transfected with YFP (1 μg) or YFP-Bax (1 μg) and Ku70 (2 μg). Twleve hrs after the transfection, the medium was supplemented with resveratrol (0, 50 or 100 nM) and the percentage of YFP positive cells with apoptotic nuclei were scored 24 hrs post-transfection. Values represent the average of three experiments in which at least 200 cells were counted and error bars represent the standard error of the mean. […] (C,D) The indicated cell lines were transfected with either YFP (1 μg), YFP-Bax (1 μg) or YFP-Bax (1 μg) and Ku70 (2 μg), and percent apoptosis was determined.
Human embryonic kidney cells (293T) were transfected with a Bax-YFP expression construct and YFP-positive cells were scored 24 hr later for a fragmented nucleus, a well-characterized apoptotic phenotype (Sawada et al., Nat. Cell Biol. 5, 320-329 (2003)).
In revesterol experiments, 293T cells were transfected with 1 μg YFP or 1 μg YFP-Bax and 2 μg Ku70. 12 hours after the transfection the media was supplemented with varying amounts of resveratrol, (0, 50 or 100 nM) and the percentage of YFP positive cells with apoptotic nuclei were scored 24 hours post-transfection.
Method for Ku70 acetylation: Briefly, HeLa cells were grown under one of the following conditions: 0.10/6 DMSO, 1 μM TSA, 5 mM nicotinamide (NAM), or TSA and NAM. Ku70 was immunoprecipitated from whole-cell extracts and probed for lysine acetylation using a panAc-Lys Ab.
To determine which class of deacetylase targets Ku70 in vivo, cells were treated with either TSA or NAM and the acetylation level of Ku70 was detected using the panAc-K antibody.
For immunoprecipitation (IP) of Ku70, 1 mg of protein was precleared by incubation with protein A/G Sepharose beads (Santa Cruz). The supernatant was incubated with agarose-conjugated goat polyclonal anti-Ku70 antibody (Santa Cruz), followed by three washes in 1% triton in PBS. The immunocomplex was separated by SDS-PAGE and proteins were detected with a rabbit polyclonal anti-pan-acetyl-lysine (panAc-K) antibody raised against acetylated rabbit's serum.

For `NC(=O)c1cccnc1` [NAM, nicotinamide], the “increase in total acetylation level of Ku70” value in the test on Ku70 acetylation was 1.8 fold. In addition, the “effect on the ability of Ku70 to suppress Bax-mediated apoptosis” value in the test with 293T cells was “abrogated the ability of Ku70 to suppress apoptosis”.

For `CC(/C=C/C(=O)NO)=C\[C@@H](C)C(=O)c1ccc(N(C)C)cc1` [TSA, trichostatin A], the “increase in total acetylation level of Ku70” value with Ku70 acetylation came out at 2.4 fold. The “effect on the ability of Ku70 to suppress Bax-mediated apoptosis” value in the test with 293T cells was “apoptosis suppression was completely blocked”.

`Oc1ccc(/C=C/c2cc(O)cc(O)c2)cc1` [resveratrol, 3,5,4′-Trihydroxy-trans-stilbene]: the “suppression of Bax-mediated apoptosis” value in the test on 293T cells (293T cells, YFP-Bax and Ku70, resveratrol 0, 50 or 100 nM added 12 hrs after transfection, scored 24 hrs post-transfection) is “dose-dependent suppression of Bax-mediated apoptosis”.

Regarding “ASKAMFESQSEDELT [Peptide 3, Ku70 peptide, amino acids 44-58]”, in the test with PCAF, the “acetylation of peptide by PCAF in vitro” value is “acetylated by PCAF” and the “Relative Intensity of Acetylation” value was “+”.

For the compound “KRRR: peptide 29 variant retaining K542, the other three lysines replaced with arginine (TKRRHDNEGSGSRRPRVEYSEE)”, the “acetylation of peptide by CBP in vitro” value with CBP is “acetylated to almost the same extent as the original peptide 29”. Moreover, the “acetylation of peptide by PCAF in vitro” value with PCAF is “acetylated to almost the same extent as the original peptide 29”.

On to “LLLPSDTKRSQIY [Peptide 15, Ku70 peptide, amino acids 310-322]”, for which, in the test with PCAF, the “acetylation of peptide by PCAF in vitro” value was “acetylated by PCAF” and the “Relative Intensity of Acetylation” value was “+++”.

On to “RQIILEKEETEELKRFD [Peptide 16, Ku70 peptide, amino acids 325-341]”, for which the “acetylation of peptide by CBP in vitro” value in the test with CBP is on record as “strongly acetylated”. Further, in the test with PCAF, the “acetylation of peptide by PCAF in vitro” value was “strongly acetylated” and the “Relative Intensity of Acetylation” value is reported as “+++”.

For “RRKR: peptide 29 variant retaining K553, the other three lysines replaced with arginine (TRRRHDNEGSGSKRPRVEYSEE)”, the “acetylation of peptide by CBP in vitro” value with CBP is recorded as “weakly acetylated”. Also, the “acetylation of peptide by PCAF in vitro” value with PCAF is “weakly acetylated”.

With “TKRKHDNEGSGSKRPKVEYSEE [Peptide 29, Ku70 peptide, amino acids 541-562]”, the “acetylation of peptide by CBP in vitro” value with CBP is “strongly acetylated”. Moreover, in the test with PCAF, the “acetylation of peptide by PCAF in vitro” value is “strongly acetylated” and the “Relative Intensity of Acetylation” value is given as “+++++”.

Turning to “VQFKMSHKRIMLFTNED [Peptide 8, Ku70 peptide, amino acids 157-173]”, in the test with PCAF, the “acetylation of peptide by PCAF in vitro” value is on record as “acetylated by PCAF” and the “Relative Intensity of Acetylation” value is “++”.
